Data on 1 molecule can be found in patent US20170281796A1, “c-Met Antibody Drug Conjugate” (Sorrento Therapeutics, Inc., priority 2014, published 2017).

For the test, the system named is MDA-MB468. Put plainly: internalization of anti c-Met antibody in triple negative breast cancer cell line. Type of test: cell-based. Particulars: 1 μg/ml antibody, 180 min at 37° C.; FIG. 8. How it is done: Internalization of anti c-Met antibody IgG1 H8-A2 (also called STI-0602 SEQ ID NO. 25/SEQ ID NO. 26) in MDA-MB468. MDA-MB468 were plated overnight and incubated with 1 μg/ml anti-C-Met H8A2 antibody for 180 min at 37° C. Cells were stained with anti-AF488.

B1: H8-A2: anti c-Met antibody IgG1, heavy chain SEQ ID NO. 25 / light chain SEQ ID NO. 26 (antibody, V domains shown)
VH: EVQLVQSGAEVKKPGASVKVSCKASGYTFYSEYMHWVRQAPGQGLEWMGWINPNSGNTGVAPKFQGRVTMTRNTSISTAYMELSSLRSEDTAVYYCARRGTTVSFDTWGQGTLVTVSS
VL: QLVLTQSPSVSVAPGQRVTISCSGSNSNIGNNYVSWYHHLPGTAPKLLIYDNNKRPSGIPDRFSGSKSGTSATLGITGLQPGDEAHYYCGTWDSTLSAWAFGGGTKLTVL
modifications: Homo sapians
As for B1, the internalization result is “internalized”.
